Assay results as given in patent US20220017863A1 (H LEE MOFFITT CANCER CENTER AND RESEARCH INSTITUTE, published 2022).

How the values were obtained:
Assay in all cases: co-IP/immunoblot and reverse co-IP/immunoblot, activated WT mouse CD3+ T cell extracts
[1] = target: T1, oxoglutarate dehydrogenase (OGDH) (mouse, UniProt Q60597 41-1023, limits assumed)
T1 construct: Endogenous protein in lysate
T1 sequence (looked up): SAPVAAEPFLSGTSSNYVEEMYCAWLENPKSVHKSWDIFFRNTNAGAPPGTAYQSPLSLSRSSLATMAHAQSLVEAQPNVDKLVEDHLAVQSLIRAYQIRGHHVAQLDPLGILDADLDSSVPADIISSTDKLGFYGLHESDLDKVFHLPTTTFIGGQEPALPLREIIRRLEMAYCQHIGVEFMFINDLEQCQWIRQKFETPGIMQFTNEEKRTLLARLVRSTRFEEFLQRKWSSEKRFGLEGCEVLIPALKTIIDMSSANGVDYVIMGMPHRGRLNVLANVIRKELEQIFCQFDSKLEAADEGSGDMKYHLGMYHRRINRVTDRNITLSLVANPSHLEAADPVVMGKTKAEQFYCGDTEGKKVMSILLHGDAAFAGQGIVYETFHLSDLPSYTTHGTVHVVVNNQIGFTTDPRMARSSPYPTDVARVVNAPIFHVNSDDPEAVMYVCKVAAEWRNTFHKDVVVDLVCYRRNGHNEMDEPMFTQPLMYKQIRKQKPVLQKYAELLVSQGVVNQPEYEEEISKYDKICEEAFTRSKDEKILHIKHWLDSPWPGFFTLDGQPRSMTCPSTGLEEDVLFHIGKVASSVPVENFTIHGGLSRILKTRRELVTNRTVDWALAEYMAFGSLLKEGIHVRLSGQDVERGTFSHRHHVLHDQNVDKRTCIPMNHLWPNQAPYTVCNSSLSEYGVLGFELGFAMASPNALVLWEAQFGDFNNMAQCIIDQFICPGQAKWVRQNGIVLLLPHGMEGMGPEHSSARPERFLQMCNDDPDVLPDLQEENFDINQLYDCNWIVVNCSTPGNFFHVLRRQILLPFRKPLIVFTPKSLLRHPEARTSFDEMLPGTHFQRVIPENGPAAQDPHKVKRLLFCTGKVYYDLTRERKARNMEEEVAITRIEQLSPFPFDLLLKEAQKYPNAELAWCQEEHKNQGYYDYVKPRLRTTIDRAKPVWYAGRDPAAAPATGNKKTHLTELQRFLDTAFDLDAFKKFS

aconitase 2 (ACO2) = target: T2, aconitase 2 (ACO2) (mouse, UniProt Q99KI0 28-780)
T2 sequence (looked up): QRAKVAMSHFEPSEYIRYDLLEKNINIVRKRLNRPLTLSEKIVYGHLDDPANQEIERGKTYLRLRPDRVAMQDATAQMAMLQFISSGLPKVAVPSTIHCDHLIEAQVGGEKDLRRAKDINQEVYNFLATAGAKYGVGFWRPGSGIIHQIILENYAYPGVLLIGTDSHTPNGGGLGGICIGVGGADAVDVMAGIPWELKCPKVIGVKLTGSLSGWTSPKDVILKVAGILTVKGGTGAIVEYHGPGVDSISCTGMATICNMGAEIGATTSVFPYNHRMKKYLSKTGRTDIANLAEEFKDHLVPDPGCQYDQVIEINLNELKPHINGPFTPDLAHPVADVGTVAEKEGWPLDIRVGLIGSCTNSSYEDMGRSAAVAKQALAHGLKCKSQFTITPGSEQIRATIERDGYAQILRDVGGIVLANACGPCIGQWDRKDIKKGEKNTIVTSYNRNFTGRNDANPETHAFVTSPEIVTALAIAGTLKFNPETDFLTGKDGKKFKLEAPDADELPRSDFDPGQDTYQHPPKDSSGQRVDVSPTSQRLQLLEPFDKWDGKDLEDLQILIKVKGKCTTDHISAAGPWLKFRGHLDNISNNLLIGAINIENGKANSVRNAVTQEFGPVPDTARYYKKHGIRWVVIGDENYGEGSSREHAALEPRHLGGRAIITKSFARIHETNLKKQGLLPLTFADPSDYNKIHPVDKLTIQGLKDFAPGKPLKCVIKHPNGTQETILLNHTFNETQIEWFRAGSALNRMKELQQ

[2] = target: T3, phosphoglycerate kinase 1 (PGK1) (mouse, UniProt P09411 2-417)
T3 sequence (looked up): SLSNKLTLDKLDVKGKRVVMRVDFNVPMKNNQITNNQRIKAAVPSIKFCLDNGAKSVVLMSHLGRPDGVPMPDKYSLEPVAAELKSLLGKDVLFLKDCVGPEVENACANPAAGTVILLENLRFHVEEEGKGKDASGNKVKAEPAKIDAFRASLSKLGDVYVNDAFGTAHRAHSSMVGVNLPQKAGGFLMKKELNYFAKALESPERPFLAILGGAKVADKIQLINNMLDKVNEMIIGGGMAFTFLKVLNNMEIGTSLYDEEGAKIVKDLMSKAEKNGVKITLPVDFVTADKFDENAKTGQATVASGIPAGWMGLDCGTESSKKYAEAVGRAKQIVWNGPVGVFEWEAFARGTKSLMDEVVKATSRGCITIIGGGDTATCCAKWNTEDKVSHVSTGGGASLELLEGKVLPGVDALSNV

Measured: binding result

B1: Sirt2 (enzyme, mouse, UniProt Q8VDQ8 2-389, looked up)
chain: AEPDPSDPLETQAGKVQEAQDSDSDTEGGATGGEAEMDFLRNLFTQTLGLGSQKERLLDELTLEGVTRYMQSERCRKVICLVGAGISTSAGIPDFRSPSTGLYANLEKYHLPYPEAIFEISYFKKHPEPFFALAKELYPGQFKPTICHYFIRLLKEKGLLLRCYTQNIDTLERVAGLEPQDLVEAHGTFYTSHCVNTSCRKEYTMGWMKEKIFSEATPRCEQCQSVVKPDIVFFGENLPSRFFSCMQSDFSKVDLLIIMGTSLQVQPFASLISKAPLATPRLLINKEKTGQTDPFLGMMMGLGGGMDFDSKKAYRDVAWLGDCDQGCLALADLLGWKKELEDLVRREHANIDAQSGSQAPNPSTTISPGKSPPPAKEAARTKEKEEQQ
notes: Endogenous protein immunoprecipitated from T cell lysates with anti-Sirt2 (Sigma #9441); also called Sirtuin 2
binds: all assays above
